Data: patent publication US20130267423A1, “PEPTIDE LIBRARIES FOR SCREENING AND OTHER APPLICATIONS” (priority 2010, published 2013)

What was measured:
C-reactive protein (CRP) [1] = biological target: T1, C-reactive protein (CRP) (Homo sapiens, UniProt P02741); test: Dot blot selectivity/sensitivity assay with biotinylated 6-mer peptides; assay type: binding; details: biotinylated 6-mer at 1 micromolar in 5% nonfat milk/TBS-T; CRP 20 micrograms to 2 ng per spot; FIG. 8B
T1 sequence (P02741 19-224): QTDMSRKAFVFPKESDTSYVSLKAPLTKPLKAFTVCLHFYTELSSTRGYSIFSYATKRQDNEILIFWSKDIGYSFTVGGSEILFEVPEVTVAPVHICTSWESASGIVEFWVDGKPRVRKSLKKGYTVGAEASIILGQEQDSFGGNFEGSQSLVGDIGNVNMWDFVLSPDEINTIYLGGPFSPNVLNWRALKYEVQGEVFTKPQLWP
Method: Dot blot selectivity/sensitivity assays in serum. […] CRP solution was prepared as 10 mg/mL stocks in PBS buffer (pH 7.4). A dilution series of CRP solution was applied to a nitrocellulose membrane, typically ranging from 20 micrograms to 2 ng per spot. The membrane was blocked at room temperature for 2 h in 5% nonfat milk/TBS-T. The membrane was then washed with TBS-T. The biotinylated 6-mer solution was prepared at 1 micromolar in 5% nonfat milk/TBS-T and incubated over the membrane for 2 h at room temperature. After washing three times with TBS-T for 10 min, 1:3000 streptavidin-HRP (Abeam) prepared in 0.5% milk/TBS-T was added to the membrane and incubated for 2 h. After washing three times with TBS-T for 10 min, the membrane was treated with chemiluminescent reagents (Amersham ECL plus Western blotting detection reagents, GE Healthcare) and then immediately developed on film.

C-reactive protein (CRP) [2] = biological target: T1, C-reactive protein (CRP); test: Affinity measurements by surface plasmon resonance (Biacore T100, CRP immobilized on CM5 chip); assay type: binding; details: CRP immobilized approx. 5000 RU; peptide 5 micromolar down to 2 nM; 25° C.; FIG. 8A
Method: Affinity measurements. Affinity measurements were performed using a Biacore T100 system and research grade CM5 sensor chips (GE Heathcare). The instrument was primed with HBS-EP+ (GE Heathcare) buffer. Flow cell 1 (or 3) was used as a reference to subtract nonspecific binding, drift, and the bulk refractive index, while flow cell 2 (or 4) was immobilized with CRP following standard procedures. A 1:1 mixture of 0.4 M EDC and 0.1 M NHS was used to activate flow cell 2 (or 4), and 0.1 mg/mL CRP solution was injected. Blocking of the remaining activated groups was done with a 1 M solution of ethanolamine (pH 8.5). CRP was immobilized onto the sensor chip surface by approximately 5000 response units (RU). The instrument was then primed using running buffer (HBS-EP+). Each of the 6-mer ligand candidates identified were dissolved in HBS-EP+ buffer to produce 5 micromolar peptide stock solutions for each peptide, which were serially diluted by a factor of 2 to produce a concentration series down to 2 nM. For a given affinity measurement, these series of peptide solutions successively were injected into flow cell 2 (or 4) for 3 min of contact time, 5 min of dissociation time, and 3.5 min of stabilization time using a flow rate of 100 microliter/min at 25° C. Flow cell 2 (or 4) was regenerated by glycine 2.5 (GE Healthcare) after injection of each peptide solution.

| binding affinity to CRP / response in dot blot (C-reactive protein (CRP) [1]) | binding affinity to CRP / response in SPR (C-reactive protein (CRP) [2]) | Substance |
| --- | --- | --- |
| highest response | highest response | LYFRRW (Synthetic Peptide Fragment) [6-mer CRP ligand candidate from focused library B screening] |
| highest response | highest response | WKFRYK (Synthetic Peptide Fragment) [6-mer CRP ligand candidate from focused library A screening] |
